Measurements as given in patent publication US20260242478A1 (published 2026).
Where no end group is shown, it is not given here.

Legend:
[1] = target: Anti-CD28 Fab (SEQ ID NOs: 696, 697); test: phage binding ELISA; biotinylated anti-CD28 Fab on neutravidin plate, clonal phage supernatant, anti-M13 HRP detection
Target sequence in this assay (VH, as listed by the source, chain 1 of 2): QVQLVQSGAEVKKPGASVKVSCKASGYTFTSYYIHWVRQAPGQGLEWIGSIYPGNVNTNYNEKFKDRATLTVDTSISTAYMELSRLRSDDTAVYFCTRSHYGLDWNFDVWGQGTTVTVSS
Target sequence in this assay (VL, as listed by the source, chain 2 of 2): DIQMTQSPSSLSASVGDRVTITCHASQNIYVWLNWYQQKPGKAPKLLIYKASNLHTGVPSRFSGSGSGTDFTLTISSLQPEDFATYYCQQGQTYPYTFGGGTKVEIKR
Description: (§1) After panning, phage infected bacteria were plated out and colonies picked into 96 well blocks. Clonal phage was then amplified and separated from bacterial cells via centrifugation.
(§2) Clonal phage were harvested as crude supematants and screened via standard ELISAs. […] Prior to the addition of clonal phage, wells were incubated with blocking buffer and CD28 antigen or blocking buffer alone. Without washing or aspirating, clonal phage supematants were then added to the wells and incubated for a short time. Wells were then washed followed by detection of bound phage using a horse radish conjugated anti-M13 antibody. Clonal phage of interest were then sent for sequence analysis.

[2] = target: Anti-CD28 Fab (SEQ ID NOs: 696, 697); test: phage binding ELISA; anti-CD28 Fab on plate pre-incubated with CD28 antigen as competitor, anti-M13 HRP detection
Target sequence in this assay (VH, as listed by the source, chain 1 of 2): as the sequence (VH, as listed by the source, chain 1 of 2) above
Target sequence in this assay (VL, as listed by the source, chain 2 of 2): as the sequence (VL, as listed by the source, chain 2 of 2) above
Description: as §1, §2

[3] = target: T1, Anti-CD28 Fab (SEQ ID NOs: 696, 697); test: phage ELISA; biotinylated anti-CD28 Fab on neutravidin plate, bound phage detected with anti-M13 HRP antibody
T1 construct: Biotinylated Fab captured on neutravidin coated plates in the phage ELISA
T1 sequence (VH, as listed by the source, chain 1 of 2): as the sequence (VH, as listed by the source, chain 1 of 2) above
T1 sequence (VL, as listed by the source, chain 2 of 2): as the sequence (VL, as listed by the source, chain 2 of 2) above
Description: as §1, §2

[4] = target: T1, Anti-CD28 Fab (SEQ ID NOs: 696, 697); test: phage ELISA on captured anti-CD28 Fab; competitor CD28 antigen pre-incubated in the wells;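 further: clonal phage supernatants added to wells preloaded with CD28 antigen in blocking buffer, control wells buffer only, bound phage read via HRP-linked anti-M13 antibody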
Description: as §1, §2

[5] = target: T2, Anti-CD28 Fab (SEQ ID NOs: 696, 697); test: phage binding ELISA; Fab on plate pre-incubated with CD28 antigen as competitor, anti-M13 HRP detection;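 further: crude clonal phage supernatants screened by ELISA, with comparison wells pre-incubated in blocking buffer only, lacking CD28 antigen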
T2 construct: Biotinylated and captured on neutravidin coated plates in the phage ELISA
T2 sequence (VH, as listed by the source, chain 1 of 2): as the sequence (VH, as listed by the source, chain 1 of 2) above
T2 sequence (VL, as listed by the source, chain 2 of 2): as the sequence (VL, as listed by the source, chain 2 of 2) above
Description: as §1, §2

[6] = target: T2, Anti-CD28 Fab (SEQ ID NOs: 696, 697); test: phage binding ELISA; biotinylated Fab on neutravidin plate, clonal phage supernatant, anti-M13 HRP detection;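 further: phage from clones picked after panning, added to wells pre-incubated with blocking buffer with or without CD28 antigen, then briefly incubated and washed before detection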
Description: as §1, §2

[7] = target: Anti-CD28 Fab (SEQ ID NOs: 696, 697); test: phage ELISA; clonal phage on biotinylated anti-CD28 Fab captured on neutravidin, anti-M13 HRP detection
Target sequence in this assay (VH, as listed by the source, chain 1 of 2): as the sequence (VH, as listed by the source, chain 1 of 2) above
Target sequence in this assay (VL, as listed by the source, chain 2 of 2): as the sequence (VL, as listed by the source, chain 2 of 2) above
Description: as §1, §2

[8] = target: Anti-CD28 Fab (SEQ ID NOs: 696, 697); test: phage ELISA on captured anti-CD28 Fab; competitor CD28 antigen pre-incubated in the wells;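 further: clonal phage supernatants added to wells preloaded with CD28 antigen in blocking buffer, control wells buffer only, bound phage read via HRP-linked anti-M13 antibody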
Target sequence in this assay (VH, as listed by the source, chain 1 of 2): as the sequence (VH, as listed by the source, chain 1 of 2) above
Target sequence in this assay (VL, as listed by the source, chain 2 of 2): as the sequence (VL, as listed by the source, chain 2 of 2) above
Description: as §1, §2

B1: Phage-792 (peptide)
peptide: YCDGHSAAYIMKCL
With B1 the “Anti-CD28 Fab signal (phage binding ELISA)” value [1] was 1.84 and the “Anti-CD28 Fab signal in the presence of CD28 (phage binding ELISA)” value [2] was 0.09.

B2: Phage-785 (peptide)
peptide: YCEGHTSEYMNKCL
notes: not shown: fused to the pIII filament protein of the bacteriophage
In the case of B2, the “Anti-CD28 Fab signal (phage binding ELISA)” value [3] is reported as 1.87 and the “Anti-CD28 Fab signal in the presence of CD28 (phage binding ELISA)” value [4] is reported as 0.06.

B3: Phage-799 (peptide)
peptide: YCEGHLPEYMRKCL
For B3, the “Anti-CD28 Fab signal (phage binding ELISA)” value [1] was 1.83 and the “Anti-CD28 Fab signal in the presence of CD28 (phage binding ELISA)” value [2] was 0.06.

B4: Phage-804 (peptide)
peptide: YCEGHSAEYIFKCL
modifications: cysteine pairing not given here; also: displayed on phage by fusion to pIII, pIII and linker sequence not given here
notes: Clonal phage of the Peptide-87 library; not shown: fused to the pIII filament protein of the bacteriophage
For B4, the “Anti-CD28 Fab signal in the presence of CD28” value [5] was 0.05 and the “Anti-CD28 Fab (SEQ ID NOs: 696, 697) signal” value [6] was 1.83.

B5: Phage-793 (peptide)
peptide: YCDGHSLQYLGKCL
In the case of B5, the “Anti-CD28 Fab signal (phage binding ELISA)” value [1] is reported as 1.84 and the “Anti-CD28 Fab signal in the presence of CD28 (phage binding ELISA)” value [2] is reported as 0.09.

B6: Phage-802 (peptide)
peptide: YCDGHSSEYIVKCL
modifications: cysteine pairing not given here; also: displayed on phage by fusion to pIII, pIII and linker sequence not given here
notes: as for B4
In the case of B6, the “Anti-CD28 Fab signal in the presence of CD28” value [5] is reported as 0.06 and the “Anti-CD28 Fab (SEQ ID NOs: 696, 697) signal” value [6] is reported as 1.83.

B7: Phage-803 (peptide)
peptide: YCEGHAAEYMWKCL
modifications: cysteine pairing not given here; also: displayed on phage by fusion to pIII, pIII and linker sequence not given here
notes: as for B4
For B7, the “Anti-CD28 Fab signal in the presence of CD28” value [5] was 0.07 and the “Anti-CD28 Fab (SEQ ID NOs: 696, 697) signal” value [6] was 1.83.

B8: Phage-806 (peptide)
peptide: YCDGHSAEYMEKCI
modifications: cysteine pairing not given here; also: displayed on phage by fusion to pIII, pIII and linker sequence not given here
notes: as for B4
For B8, the “Anti-CD28 Fab signal in the presence of CD28” value [5] was 0.07 and the “Anti-CD28 Fab (SEQ ID NOs: 696, 697) signal” value [6] was 1.83.

B9: Phage-789 (peptide)
peptide: YCEGHAAEYMSKCL
B9 was tested, and the “Anti-CD28 Fab signal (phage binding ELISA)” value [1] was 1.86 and the “Anti-CD28 Fab signal in the presence of CD28 (phage binding ELISA)” value [2] was 0.07.

B10: Phage-788 (peptide)
peptide: YCDGHMPEYLAKCL
With B10 the “Anti-CD28 Fab signal (phage binding ELISA)” value [1] was 1.86 and the “Anti-CD28 Fab signal in the presence of CD28 (phage binding ELISA)” value [2] was 0.07.

B11: Phage-791 (peptide)
peptide: YCDGHSWAYMWKCL
For B11, the “Anti-CD28 Fab signal (phage binding ELISA)” value [1] was 1.85 and the “Anti-CD28 Fab signal in the presence of CD28 (phage binding ELISA)” value [2] was 0.13.

B12: Phage-801 (peptide)
peptide: YCDGHLPMYFAKCM
modifications: cysteine pairing not given here; also: displayed on phage by fusion to pIII, pIII and linker sequence not given here
notes: as for B4
For B12, the “Anti-CD28 Fab signal in the presence of CD28” value [5] was 0.06 and the “Anti-CD28 Fab (SEQ ID NOs: 696, 697) signal” value [6] was 1.83.

B13: Phage-800 (peptide)
peptide: YCDGHSPAYMAKCL
B13 was tested, and the “Anti-CD28 Fab signal (phage binding ELISA)” value [1] was 1.83 and the “Anti-CD28 Fab signal in the presence of CD28 (phage binding ELISA)” value [2] was 0.1.

B14: Phage-787 (peptide)
peptide: YCDGHLAMYMDKCL
notes: as for B2
With B14 the “Anti-CD28 Fab signal (phage binding ELISA)” value [3] was 1.86 and the “Anti-CD28 Fab signal in the presence of CD28 (phage binding ELISA)” value [4] was 0.08.

B15: Phage-796 (peptide)
peptide: YCEGHLQIYMSKCL
In the case of B15, the “Anti-CD28 Fab signal (phage binding ELISA)” value [1] is reported as 1.84 and the “Anti-CD28 Fab signal in the presence of CD28 (phage binding ELISA)” value [2] is reported as 0.14.

B16: Phage-798 (peptide)
peptide: YCEGHRPEYMAKCL
For B16, the “Anti-CD28 Fab signal (phage binding ELISA)” value [1] was 1.83 and the “Anti-CD28 Fab signal in the presence of CD28 (phage binding ELISA)” value [2] was 0.07.

B17: Phage-807 (peptide)
peptide: YCDGHLPLYMHKCL
modifications: cysteine pairing not given here; also: displayed on phage by fusion to pIII, pIII and linker sequence not given here
notes: as for B4
In the case of B17, the “Anti-CD28 Fab signal in the presence of CD28” value [5] is reported as 0.07 and the “Anti-CD28 Fab (SEQ ID NOs: 696, 697) signal” value [6] is reported as 1.82.

B18: Phage-814 (Peptide-87 library peptide, SEQ ID NO: 1130) (peptide)
peptide: YCQGHSAEYMMKCL
In the case of B18, the “Phage binding ELISA, Anti-CD28 Fab signal” value [7] is reported as 1.81 and the “Phage binding ELISA, Anti-CD28 Fab signal in the presence of CD28” value [8] is reported as 0.07.

B19: Phage-812 (peptide)
peptide: YCAGHSSEYIWKCL
modifications: cysteine pairing not given here; also: displayed on phage by fusion to pIII, pIII and linker sequence not given here
notes: as for B4
B19 was tested, and the “Anti-CD28 Fab signal in the presence of CD28” value [5] was 0.06 and the “Anti-CD28 Fab (SEQ ID NOs: 696, 697) signal” value [6] was 1.82.

B20: Phage-808 (peptide)
peptide: YCEGHAPQYLNKCL
modifications: cysteine pairing not given here; also: displayed on phage by fusion to pIII, pIII and linker sequence not given here
notes: as for B4
With B20 the “Anti-CD28 Fab signal in the presence of CD28” value [5] was 0.08 and the “Anti-CD28 Fab (SEQ ID NOs: 696, 697) signal” value [6] was 1.82.

B21: Phage-790 (peptide)
peptide: YCAGHSSEYMWKCL
B21 was tested, and the “Anti-CD28 Fab signal (phage binding ELISA)” value [1] was 1.85 and the “Anti-CD28 Fab signal in the presence of CD28 (phage binding ELISA)” value [2] was 0.07.

B22: Phage-815 (Peptide-87 library peptide, SEQ ID NO: 1131) (peptide)
peptide: YCAGHLPQYMNKCL
B22 was tested, and the “Phage binding ELISA, Anti-CD28 Fab signal” value [7] was 1.81 and the “Phage binding ELISA, Anti-CD28 Fab signal in the presence of CD28” value [8] was 0.06.

B23: Phage-795 (peptide)
peptide: YCAGHLPEYLSKCL
B23 was tested, and the “Anti-CD28 Fab signal (phage binding ELISA)” value [1] was 1.84 and the “Anti-CD28 Fab signal in the presence of CD28 (phage binding ELISA)” value [2] was 0.07.

B24: Phage-805 (peptide)
peptide: YCEGHSPMYMQKCM
modifications: cysteine pairing not given here; also: displayed on phage by fusion to pIII, pIII and linker sequence not given here
notes: as for B4
For B24, the “Anti-CD28 Fab signal in the presence of CD28” value [5] was 0.06 and the “Anti-CD28 Fab (SEQ ID NOs: 696, 697) signal” value [6] was 1.83.

B25: Phage-813 (peptide)
peptide: YCEGHSAEFMTKCL
modifications: cysteine pairing not given here; also: displayed on phage by fusion to pIII, pIII and linker sequence not given here
notes: as for B4
With B25 the “Anti-CD28 Fab signal in the presence of CD28” value [5] was 0.06 and the “Anti-CD28 Fab (SEQ ID NOs: 696, 697) signal” value [6] was 1.81.

B26: Phage-811 (peptide)
peptide: YCDGHSSMYMAKCL
modifications: cysteine pairing not given here; also: displayed on phage by fusion to pIII, pIII and linker sequence not given here
notes: as for B4
With B26 the “Anti-CD28 Fab signal in the presence of CD28” value [5] was 0.06 and the “Anti-CD28 Fab (SEQ ID NOs: 696, 697) signal” value [6] was 1.82.

B27: Phage-809 (peptide)
peptide: YCDGHAREYMTKCL
modifications: cysteine pairing not given here; also: displayed on phage by fusion to pIII, pIII and linker sequence not given here
notes: as for B4
B27 was tested, and the “Anti-CD28 Fab signal in the presence of CD28” value [5] was 0.06 and the “Anti-CD28 Fab (SEQ ID NOs: 696, 697) signal” value [6] was 1.82.

B28: Phage-794 (peptide)
peptide: YCEGHSQEYMQKCL
B28 was tested, and the “Anti-CD28 Fab signal (phage binding ELISA)” value [1] was 1.84 and the “Anti-CD28 Fab signal in the presence of CD28 (phage binding ELISA)” value [2] was 0.05.

B29: Phage-797 (peptide)
peptide: YCAGHAPEYMFKCM
In the case of B29, the “Anti-CD28 Fab signal (phage binding ELISA)” value [1] is reported as 1.83 and the “Anti-CD28 Fab signal in the presence of CD28 (phage binding ELISA)” value [2] is reported as 0.06.

B30: Phage-810 (peptide)
peptide: YCDGHTEEYMDKCL
modifications: cysteine pairing not given here; also: displayed on phage by fusion to pIII, pIII and linker sequence not given here
notes: as for B4
In the case of B30, the “Anti-CD28 Fab signal in the presence of CD28” value [5] is reported as 0.09 and the “Anti-CD28 Fab (SEQ ID NOs: 696, 697) signal” value [6] is reported as 1.82.
